Patent US20130331317A1 (NEW YORK UNIVERSITY, published 2013)

Tests used:
[1] = molecular target: binary complex of FGFR1c ligand-binding domain with murine αKlotho ectodomain (murine;human) (UniProt O35082); experiment: SPR
[2] = molecular target: T1, ligand-binding domain of human FGFR1c (D142 to R365) (human, UniProt P11362 142-365); experiment: SPR; increasing concentrations of FGFR1c ligand-binding domain passed over immobilised FGF23
T1 construct: range 142-365
T1 sequence (looked up): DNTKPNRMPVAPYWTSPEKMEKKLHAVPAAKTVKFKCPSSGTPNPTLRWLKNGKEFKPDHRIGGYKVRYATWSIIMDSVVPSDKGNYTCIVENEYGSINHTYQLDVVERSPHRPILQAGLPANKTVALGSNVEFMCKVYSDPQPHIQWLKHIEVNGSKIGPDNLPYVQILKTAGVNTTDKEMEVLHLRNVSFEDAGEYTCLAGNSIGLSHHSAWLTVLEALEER
Text: (§1) FIGS. 10A-10D show overlays of SPR sensorgrams illustrating binding of FGFR1c to FGF2 (FIG. 10A), FGF19 (FIG. 10B), FGF21 (FIG. 10C), and FGF23 (FIG. 10D), and fitted saturation binding curves. Increasing concentrations of FGFR1c ligand-binding domain were passed over a biosensor chip containing immobilized FGF2, FGF19, FGF21, or FGF23. […] Increasing concentrations of αKlotho-FGFR1c complex were passed over a biosensor chip containing immobilized FGF23. […] FGF23^C-tail was immobilized on a biosensor chip and increasing concentrations of FGFR1c ligand-binding domain were passed over the chip. Dissociation constants (KDs) given in FIGS. 10A-10E were derived from the saturation binding curves.
(§2) Surface plasmon resonance (SPR) experiments were performed on a Biacore 2000 instrument (Biacore AB), and the interactions were studied at 25° C. in HBS-EP buffer (10 mM HEPES-NaOH, pH 7.4, 150 mM NaCl, 3 mM EDTA, 0.005% (v/v) polysorbate 20). To study endocrine FGF-heparin interactions, a heparin chip was prepared by immobilizing biotinylated heparin (Sigma-Aldrich) on flow channels of a research-grade streptavidin chip (Biacore AB). The coupling density was ˜5 fmol mm⁻² of flow channel. To measure binding of chimeric FGF2 proteins to heparin, biotinylated heparin was coupled to a streptavidin chip at an approximately 4-fold lower density as judged based on the binding responses obtained for FGF1. […]

[3] = molecular target: T2, binary complex of FGFR1c ligand-binding domain with murine αKlotho ectodomain (murine; human, UniProt O35082 35-982; P11362 142-365); experiment: SPR; FGFR1c ligand-binding domain or αKlotho-FGFR1c complex passed over immobilised FGF23 (FIGS. 10D and 10E)
T2 construct: range 35-982;range 142-365; αKlotho ectodomain was expressed in HEK293 cells; also called αKlotho-FGFR1c complex; αKlotho-FGFR1c; not shown: C-terminal FLAG tag
T2 sequence (looked up) 1: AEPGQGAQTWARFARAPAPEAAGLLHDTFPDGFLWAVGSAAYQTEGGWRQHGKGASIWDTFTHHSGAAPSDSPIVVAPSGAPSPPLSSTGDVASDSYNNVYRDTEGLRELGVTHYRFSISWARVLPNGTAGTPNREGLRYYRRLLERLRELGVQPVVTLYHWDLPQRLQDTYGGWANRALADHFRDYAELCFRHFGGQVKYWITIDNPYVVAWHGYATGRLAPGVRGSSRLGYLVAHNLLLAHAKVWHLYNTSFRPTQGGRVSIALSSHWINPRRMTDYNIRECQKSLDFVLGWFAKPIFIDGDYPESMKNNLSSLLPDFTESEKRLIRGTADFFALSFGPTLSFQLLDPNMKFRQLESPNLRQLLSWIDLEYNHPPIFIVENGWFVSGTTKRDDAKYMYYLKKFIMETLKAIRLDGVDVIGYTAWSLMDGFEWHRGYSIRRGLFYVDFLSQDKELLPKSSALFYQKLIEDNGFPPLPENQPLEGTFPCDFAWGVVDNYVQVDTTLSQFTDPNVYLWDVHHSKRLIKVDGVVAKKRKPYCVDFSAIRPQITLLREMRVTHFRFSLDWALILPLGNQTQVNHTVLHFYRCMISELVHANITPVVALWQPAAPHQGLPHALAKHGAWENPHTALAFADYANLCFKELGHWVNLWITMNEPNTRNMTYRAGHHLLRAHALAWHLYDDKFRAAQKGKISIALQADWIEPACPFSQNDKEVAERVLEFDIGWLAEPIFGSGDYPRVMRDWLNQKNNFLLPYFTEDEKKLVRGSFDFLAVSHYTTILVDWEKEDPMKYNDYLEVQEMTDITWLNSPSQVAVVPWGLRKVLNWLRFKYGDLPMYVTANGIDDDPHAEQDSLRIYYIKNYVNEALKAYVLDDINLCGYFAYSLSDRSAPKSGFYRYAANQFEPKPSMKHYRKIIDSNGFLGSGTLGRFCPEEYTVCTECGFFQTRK
T2 sequence (looked up) 2: T1 sequence (looked up)
Text: as §1, §2

[4] = molecular target: T3, ligand-binding domain of human FGFR1c (D142 to R365) (human, UniProt P11362 142-365); experiment: SPR
T3 chain: T1 sequence (looked up)

[5] = molecular target: T4, binary complex of FGFR1c ligand-binding domain with murine βKlotho ectodomain (murine; human, UniProt P11362 142-365); experiment: SPR competition; FGF21 in solution mixed with βKlotho-FGFR1c complex, passed over immobilised FGF21
T4 construct: range 142-365; also called βKlotho-FGFR1c complex; βKlotho-FGFR1c; not shown: C-terminal FLAG tag
T4 sequence 1: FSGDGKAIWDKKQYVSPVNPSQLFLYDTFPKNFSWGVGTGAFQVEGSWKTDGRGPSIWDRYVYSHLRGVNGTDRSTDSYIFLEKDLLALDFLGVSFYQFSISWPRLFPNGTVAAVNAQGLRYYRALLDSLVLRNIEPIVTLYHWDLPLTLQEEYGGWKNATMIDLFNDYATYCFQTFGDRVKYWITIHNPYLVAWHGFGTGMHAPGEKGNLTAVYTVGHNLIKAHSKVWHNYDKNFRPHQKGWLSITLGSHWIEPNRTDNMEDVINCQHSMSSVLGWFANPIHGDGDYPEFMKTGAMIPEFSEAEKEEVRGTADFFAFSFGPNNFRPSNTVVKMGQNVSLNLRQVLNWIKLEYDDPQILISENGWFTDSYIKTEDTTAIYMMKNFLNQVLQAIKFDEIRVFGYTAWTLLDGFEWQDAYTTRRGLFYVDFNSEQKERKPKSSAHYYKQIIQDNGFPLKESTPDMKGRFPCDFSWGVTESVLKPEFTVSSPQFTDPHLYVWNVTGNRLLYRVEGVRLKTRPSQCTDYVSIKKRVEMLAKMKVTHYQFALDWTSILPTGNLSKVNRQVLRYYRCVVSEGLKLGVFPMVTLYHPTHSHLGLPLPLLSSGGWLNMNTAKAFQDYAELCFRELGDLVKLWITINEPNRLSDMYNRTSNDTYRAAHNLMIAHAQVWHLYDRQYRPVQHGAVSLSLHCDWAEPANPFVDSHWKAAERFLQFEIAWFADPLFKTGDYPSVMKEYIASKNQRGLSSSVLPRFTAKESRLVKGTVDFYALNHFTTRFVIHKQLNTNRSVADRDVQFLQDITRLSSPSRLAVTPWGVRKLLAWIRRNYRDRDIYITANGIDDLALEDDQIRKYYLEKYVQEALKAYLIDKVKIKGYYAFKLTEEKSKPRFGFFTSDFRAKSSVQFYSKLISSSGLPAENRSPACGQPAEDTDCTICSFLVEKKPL
T4 sequence 2: T1 sequence (looked up)
Text: To this end, a SPR-based binding competition assay was employed. FGF23 was immobilized onto a SPR biosensor chip, and mixtures of a fixed concentration of binary αKlotho-FGFR1c complex with increasing concentrations of FGF2^ΔHBScore-FGF23^C-tail chimera were passed over the chip. […] To test whether the FGF2^ΔHBScore-FGF21^C-tail chimera can likewise form a ternary complex with FGFR1c and βKlotho, FGF21 was coupled to a SPR biosensor chip, and mixtures of the binary βKlotho-FGFR1c complex with FGF2^ΔHBScore-FGF21^C-tail were passed over the chip. […] To further confirm the binding specificity of the FGF2^ΔHBScore-FGF23^C-tail chimera for the αKlotho-FGFR1c complex, FGF2^ΔHBScore-FGF23^C-tail and βKlotho-FGFR1c complex were mixed at a molar ratio of 10:1, and the mixture was injected over a chip containing immobilized FGF21. […] For the FGF2^ΔHBScore-FGF21^C-tail chimera, we investigated whether it is able to activate FGFR1c in a βKlotho-dependent fashion in cells. HEK293 cells were transfected with βKlotho and then stimulated with FGF2^ΔHBScore-FGF21^C-tail or FGF21.

[6] = molecular target: T1, ligand-binding domain of human FGFR1c …; experiment: SPR; increasing concentrations of FGFR1c ligand-binding domain passed over immobilised FGF21
Text: as §1, §2

[7] = molecular target: T1, ligand-binding domain of human FGFR1c …; experiment: SPR; FGF23^C-tail immobilised on the chip, increasing concentrations of FGFR1c ligand-binding domain passed over it
Text: as §1, §2

Molecule: human FGF23 (Y25 to I251), N-terminally hexahistidine-tagged mature form, with R176Q/R179Q (from UniProt Q9GZV9 25-251)
- Kd [1]: 27.4 nM

B1: human FGF23 (Y25 to I251), N-terminally hexahistidine-tagged mature form, with R176Q/R179Q (ligand)
chain: YPNASPLLGSSWGGLIHLYTATARNSYHLQIHKNGHVDGAPHQTIYSALMIRSEDAGFVVITGVMSRRYLCMDFRGNIFGSHYFDPENCRFQHQTLENGYDVYHSPQYHFLVSLGRAKRAFLPGMNPPPYSQFLSRRNEIPLIHFNTPIPRQHTQSAEDDSERDPLNVLKPRARMTPAPASCSQELPSAEDNSPMASDPLGVVRGGRVNTHAGGTGPEGCRPFAKFI
notes: also called native FGF23; wild-type FGF23; not shown: N-terminal hexahistidine tag
- binding result [2]: binds
- fold enhancement of affinity (αKlotho-FGFR1c complex against FGFR1c alone) [3]: > 20 fold
- Kd [4]: 648 nM

B2: human FGF21 (H29 to S209), N-terminally hexahistidine-tagged mature form (ligand)
chain: HPIPDSSPLLQFGGQVRQRYLYTDDAQQTEAHLEIREDGTVGGAADQSPESLLQLKALKPGVIQILGVKTSRFLCQRPDGALYGSLHFDPEACSFRELLLEDGYNVYQSEAHGLPLHLPGNKSPHRDPAPRGPARFLPLPGLPPALPEPPGILAPQPPDVGSSDPLSMVGPSQGRSPSYAS
notes: also called native FGF21; not shown: N-terminal hexahistidine tag
- binding result [5]: binds
- Kd [4]: 2520 nM
- binding result [6]: binds

B3: N-terminally hexahistidine-tagged C-terminal tail peptide of FGF23 (S180 to I251) (peptide)
peptide: SAEDDSERDPLNVLKPRARMTPAPASCSQELPSAEDNSPMASDPLGVVRGGRVNTHAGGTGPEGCRPFAKFI
notes: also called FGF23^C-tail; not shown: N-terminal hexahistidine tag
- binding result [7]: no binding
